Literature values in paper PMC5488128 (CPT: Pharmacometrics & Systems Pharmacology, 2017).

Columns and labels:
[1] = subcutaneously applied, tested up to 30U
[2] = system: glucose infusion rate (GIR); conditions: type-1 patients, up to 90U insulin Lispro, GIR recording time of 12 h

Row | Substance | dose proportionality of exposure [1] | ED50 [2]
1 | RHI: subcutaneously (s.c.) administered regular human insulin | dose‐proportional | –
2 | insulin lispro: prandial insulin analog, comparator in clamp study NCT02470637 | – | 51 U
